# Experimental data published in the DeepSol protein solubility set.
# Test: soluble on expression in E. coli; label from the status in PepcDB or PDB records
row,Sequence,soluble on expression in E. coli
1,MPKQKASYEALLEEVVETLKHSPDGVNEIVESSAKYVDAANDLTKDELALISAYVKADLKEFSQSFEQSKSSPFYLMITNSIWQGLLDITDRTKVEWVELFADLEHQGLYQAGDMIGLGVLICDQCGHKTEFNHPTEIEPCSQCGGKAFSRQPLKP,not soluble
2,MTIQPPSSSSATEFCQPDESTFLVGFNRVRRYGTTQSQSSPVTPCSYTIYQVQTDDTLERIALKHNCSVSSLVRANKLWSPSALFMKQFIRIPIFNSQQPNLKPSLQETQCKIVPATTERVDSSREEKSMKDILQRIDRNIKSFRKCDNPSSSAYDHI,not soluble
3,MKEESEESSMDHHSYTTEEVAKRLKVSKLTVYDLIKKGELPSYRVGRQMRIDAADLDQYIKQMKTGKVQVNPVKNDGSSILNTCIISGQELTLDMLAKRIENRLPSSNVLRAYQGSLTSLVKMYQGEGSIVSLHLFDGETGTYNIPYVKRILVGQPCLMINLLSRNVGFYVQKGNPKKIKTWADISGSTIKFVNREKGSGIRVLVDEQLRILKLNKADISGYEWEESNHLGVATQVANGKADVGVGSEKFSQIVNVDFIPIMKEQYDLVILKNKENEELIEVVKDILQSEEFHNELNAIGGYDITKTGQIVYEIK,not soluble
4,GPGSMITEGAATPCAEVPAIRRVRRTRSRFERLVRPEDVAPGEPTPSVEGWVLFLTNLPPNTTMDHITDLFVTREGEGLWNVREVKMPLDKNCECCGYALVELEKREAFEAALRDMEGMTLSFAEGEPPNGEDAWRLHIAPTFLGEKDDEEEELVAGGKRERE,soluble
5,SAENREPRCAIEAELDPVEYTLRKRLPHRLPRRPNDIYVNMKTDFKAQLARCQKLLDGGTRGQNACTEIYIHGLGLAINRAINIALQLQAGSFGSLQVAANTSTVELVDELEPETDSREPLTRVRNNSAIHIRVFRVTPK,soluble
6,KKPMFLCVLSSTKTAHIPKLSAAGKTAELTDYTPAGDAELMETGNIISVPVLPMTPPYDTPTPAIMTRSALKLTDAPYHFINSGLIVTPDVPCIDLKANPGEDIREPVAVMDVQGIYERAKLLAKRLRNQADHVVIGESIPGGTTTAMGVLMALGYNGNVSSSADENPLELKKQVVEEGMKASGLTFGCLKDDPMKAIACMGDPMMPAVAGLVAGFQDTDTSVVLAGGTQMAAVYALIKHMGLNTEKIAIATTRYVVEDKSANFIQLTTTLGVPVVYVADPGFGKSSMKGLHRYETGTIKEGAGAGGAMYLAG,not soluble
7,SNAMKILLIGASGTLGSAVKERLEKKAEVITAGRHSGDVTVDITNIDSIKKMYEQVGKVDAIVSATGSATFSPLTELTPEKNAVTISSKLGGQINLVLLGIDSLNDKGSFTLTTGIMMEDPIVQGASAAMANGAVTAFAKSAAIEMPRGIRINTVSPNVLEESWDKLEPFFEGFLPVPAAKVARAFEKSVFGAQTGESYQVY,soluble
8,GMYLKELSMMPGVSGDEGKVRDFIKSKIEGLVDNLYTDVLGNLIALKRGRDSSKKLLVSAHMDEVGFVVSKIEKDGKVSFLPVGGVDPRILPGKVVQVKNLKGVIGYRPIHLQRDEENTPPRFENLRIDFGFSSADEAKKYVSIGDYVSFVSDYIEKNGRAVGKAFDDRAGCSVLIDVLESGVSPAYDTYFVFTVQEETGLRGSAVVVEQLKPTCAIVVETTTAGDNPELEERKWATHLGDGPAITFYHRGYVIPKEIFQTIVDTAKNNDIPFQMKRRTAGGTDAGRYARTAYGVPAGVISTPARYIHSPNSIIDLNDYENTKKLIKVLVEEGKIVEVVS,soluble
9,MGSDKIHHHHHHMLNSQSKLDQEVIEGIHRIRENGVLPFIATGRGHFELDEIMSLTGISGAVAMNGQYIVLDGETIYKEEIPTSSVEKLLEAASPHSEALSFYDSQGYWVSELTDLAKTAYAYTHMPMPQADARRYLSQEVNMLLVLTNQLSQVDYYKERVPELNFFMNSPSSIDVTNSTTNKGTGINHVKEVLNFTGQTFAFGDGRNDLDLFKAADHRTAMGNAVPELKELADFISTENTNHGIINAFNHWGIM,not soluble
10,MEIVLTREKMEITATPIRTRYIDRNEDFVSESIHSLKKEIENGFEIKNGDFLVVSEKFIATSEDNFVDESLADPKFWAYFTYYLSKYGWGYVLGPLLGTRGDRVKNLRKMPKTETLKHKQIVIENVGLIYALKPASEGGIDLTNVPGTYASLLPENPEYSAKKLHKKIKEDLDLDLTVMVIDTDATYRFFNWYVTALPIAVEGITSKIGVFGYILGKFGKILNQGGLCGATPLAITGNENYKKYPLKTLLYIANLSDTSQVPYTKSIHDLMKKYNTFEITVDVLKEMEHSPLVIVKCE,not soluble
11,MSLNKLVDAHCHVITDPDNTFCGDDGGSQGTLRCVMSSNPYDWNNLKKLAGRSTSKNDICVGFGVHPWYSHLFYVGSRRDKVSHYQDVLEYKNEEQFDSLVQVLPEPLDLEEYIKREFNDTLVSVIGEIGLDKLFRLPANGFYMQNEKARLTTVKVKLSHQETVFRRFCRLARHTSKPISIHDVKCHGKLNDICNEELLTYHSVKICLHSYTGSKETLLGQWLKKFPPDRIFVSLSKWINFKDPEEGDALVRSLPSTCILTETDYPIDNPDPSYQKALTEQLQYLNAQIARAWDETLDASQAALRVYENFQKFIKEGHHHHHH,not soluble
12,MGSDKIHHHHHHCGGGTERKGLEALVAEYKKLNPDVDFEIIDISYSSYMQKISLAVMSGDVPDLMTITYPFAPELRKYLIDLDPYIEKYLGITPKEYEDAFYNVVKPYIKDENGKIKYVPLHFTVQGLWVNVDYFEKAGIPFPPLGGREEPWTWEEFVEVLRKVKEANNLPYAMSMQYSAERIANYLAIRGAKVLDENLNLVLDKDPKAIKALEDFVNLFKENLCVPAEWVSGQSADNDFYGGVTAVYWAGSWETLDALSVEGKRFLPAYLPKDEYCFGVEGGRFFGAFKTGDKKKEEEAAKFALWAGWKGKGYDIYLKTTLHLSAYKDHKVDYGVPIMESVQKVFGYLAANAPEWIVTVRANPVWSRLYDPLRKQISLVIAGQQDLQTALKNIRAEYERIVEELGIK,not soluble
13,GPHSLRYFVTAVSRPGLGEPRFIAVGYVDDTQFVRFDSDADNPRFEPRAPWMEQEGPEYWEEQTQRAKSDEQWFRVSLRTAQRYYNQSKGGSHTFQRMFGCDVGSDWRLLRGYQQFAYDGRDYIALNEDLKTWTAADTAALITRRKWEQAGDAEYYRAYLEGECVEWLRRYLELGNETLLRTDSPKAHVTYHPRSQVDVTLRCWALGFYPADITLTWQLNGEDLTQDMELVETRPAGDGTFQKWAAVVVPLGKEQNYTCHVHHKGLPEPLTLRWKLPPSTVSN,soluble
14,MGSDKIHHHHHHMKKVERINTIMRYINNRSHFTISEIIREFNISRSTAIRDIREIEAMGMPLVAEVGRSGGYFVMHNSILPVVRFTDNEVKALFIAFMATRNQQLPYLKSRQSLAEKLLGLISETQQDDLVLLNQLLLFEGTNPHNPDLLELSDLPHPMLEKLIQILLLDRYLLITVKEEIKSYPIYLLHLYKEKSYWIIEGFDLKEEKKLMFPVDDLINIEPYTPKKRLHKKQILERLSKKDEAINLVFELGPKAIAQFKKYHPFKVSISYTNPYQSTAILKTFIDVHNSDEVTEMTNWLLFLGKDITIKEMPEEVLKDLQERLCLYTP,not soluble
15,MKKWLALFVFGMVSLFATSAHAESYETTKTLKVYESRSFNSPVKKELQPGERVYVTNQHPSGWWKISGGFIAPEGAKVEINRTFEAFDWINMDSAKYVFSPQTVIARDGTLRGEILIDTYLGQKWTSVNGMPQIMKQNFAAYSSPEAKNPDAWFAPQTVNILQTKENGWSLINTYLGPKWIVRYPHVEHINRDFYAYNEPKYMHHGVKFSAQSVRVLQQGENGWKKIKAEVGEKWIAPQGSYYHVPNVFTAFDQPFGRAIGTFAPQTVFVVEESTTSFGWLKIRTYLGDSWIRTNRN,not soluble
16,MSLISPIIRLSHVTFQTSSAARVIKEFVTKYQFHPFAARGLDGGSPCQVALKNGGVVFMVNENTPKTHENSVLLYDFPLQIPFPDTACNVTFEVEDVSGLYHHLVDEGCQLLLPPTELHDDFGSVTYCIVKSVVGNVSHTLIDRTHYRSSFLPGFEYLKNSTHNLSSGNMTHVDHIAYTCPRGTSPSILEWYRRCFGFQHFPLSKGEDPERGFEIIGPRIGLRLTSLVCPKLSKECKLVLAESLPQEGINQVDEFMQQHTGGGIQHIGLSTPDIFKAAEDLSKLGVCFAIQPSSYYSETKKQKEIYSVGLEPQMLAQFGILMDSATDDILSNDAPKKFLLQVFAEPLFSKNSAFLELIERRSAEGFGEGNIRALWRSMQDLQEDQTVKEQEGEGHHHHHH,soluble
17,MKADHPEDIEDIKELIAQTENEQVEFKETTGQLERGMETLCAFLNGEGGTVLFGITDKGKIIGQEVADVTKRSIAEAINRLEPTANVHVFYIPLPDSSKKIIALHVENSRDNRPFCYKSRPYYRVESVTSAMPQAVYNQLLIIRDEAKYRWELFENPKLSLQDMDENEILKTVRLGIECGRLPENTGNNLSIILEKFGLLVNGVLNNAAAVLFANRELIEYPQCLLRLARFKGTDKMVFMDNQRVQGNLFQLLDSAMTFIFKHLSLSGTTEALEREEHLTIPYKAIREGIINSLCHRQFRTPGGSVGIAIYDDRVEIENPGTFPHGWDMERMKSEHCSEPRNPLIANVLYKRKLLENWGRGISLMTEECRKANLPEPEFKLANGFVILVFRYGTNNHTSTMQVPHKHHISTIQVQSLLNIMEYNTYSVKEMMELLELKNRSYFSKEYLKPAVETGVIEPIFPDQPKSPKQKYRLTEKGKALLEKRLEHHHHHH,soluble
18,MVFEEFISTELKKEKKAFTEEFKEEKEINDNSNLKNDLLKEELQEKARIAELESRILKLELEKKELERENLQLMKENEILRRELDRMRVPPLIVGTVVDKVGERKVVVKSSTGPSFLVNVSHFVNPDDLAPGKRVCLNQQTLTVVDVLPENKDYRAKAMEVDERPNVRYEDIGGLEKQMQEIREVVELPLKHPELFEKVGIEPPKGILLYGPPGTGKTLLAKAVATETNATFIRVVGSELVKKFIGEGASLVKDIFKLAKEKAPSIIFIDEIDAIAAKRTDALTGGDREVQRTLMQLLAEMDGFDARGDVKIIGATNRPDILDPAILRPGRFDRIIEVPAPDEKGRLEILKIHTRKMNLAEDVNLEEIAKMTEGCVGAELKAICTEAGMNAIRELRDYVTMDDFRKAVEKIMEKKKVKVKEPAHLDVLYR,soluble
19,SFRFMRDVEPEDPMFLMDPFAIHRQHMSRMLSGGFGYSPFLSITDGNMPGTRPASRRMQQAGAVSPFGMLGMSGGFMDMFGMMNDMIGNMEHMTAGGNCQTFSSSTVISYSNTGDGAPKVYQETSEMRSAPGGIRETRRTVRDSDSGLEQMSIGHHIRDRAHILQRSRNHRTGDQEERQDYINLDESEAAAFDDEWRRETSRFRQQRPLEFRRLESSGAGGRRAEGPPRLAIQGPEDSPSRQSRRYDW,soluble
20,GPGSMANDYLFTSESVSEGHPDKVADQISDAILDAILAQDKYSRVAAETLCNTGLVVLAGEITTTANIDYIQIARDTIKRIGYDNTDYGIDYRGCAVLVAYDKQSPDIAQGVDRAHDNNLDQGAGDQGLMFGYACDETPELMPLPIHLSHRLVERQANLRRDGRLPWLRPDAKSQVTVRYVDGKPHSIDTVVLSTQHAPEIDLPALREAVIEEVIKPTLPADLIKGDIKFLVNPTGRFVIGGPQGDCGLTGRKIIVDTYGGAAPHGGGAFSGKDPSKVDRSAAYAGRYVAKNIVAAGLASRALIQVSYAIGVAEPTSVMVNTFGTGRVSDETITKLVREHFDLRPKGIIQMLDLLRPIYEKTAAYGHFGREEPEFSWEAADKALALAEAAGVEPAVQVA,soluble
21,LTVLELESQIDVLSRIQFVSRFGSNLVHIEGVKGSGKSWLAQRYLEKWCDDADQVLLMCHPNQSIQQQRGIILKQVVRDPLFNESDSVVDSVGRMLAGEKCNLVLAIDDAHLLSSELLSELWLLVQKAQSAPNWQINILLFAEKGKLTQTLSQMSYGQDNKPVDIDINP,soluble
